The record followed here is US20130059773A1 (published 2013).

This experiment addresses T1, Proliferating Cell Nuclear Antigen (PCNA), wild type, cellular (cytosolic PCNA of human neutrophils) (human, UniProt P12004 1-261).
T1 construct: Endogenous protein in human neutrophil cytosol in the co-immunoprecipitations; Expressed from pcDNA3-PCNA in PLB985 cells in the caspase-9 activity row; also called cytoplasmic PCNA; PLB985-PCNA (overexpressed form)
As to the kind of experiment: co-immunoprecipitation from neutrophil cytosol, western blot.

T1 sequence (P12004 whole entry): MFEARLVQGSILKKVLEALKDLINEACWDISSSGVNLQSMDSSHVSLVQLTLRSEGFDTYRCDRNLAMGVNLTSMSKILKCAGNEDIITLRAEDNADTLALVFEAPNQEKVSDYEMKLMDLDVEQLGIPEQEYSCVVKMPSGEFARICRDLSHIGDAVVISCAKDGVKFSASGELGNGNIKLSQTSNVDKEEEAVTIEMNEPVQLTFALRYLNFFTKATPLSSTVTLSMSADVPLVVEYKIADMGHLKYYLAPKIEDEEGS
Protocol: Western blot analysis and co-immunoprecipitation experiments. […] Cytosol (500 mg) was mixed with 50 ml of protein G and Ab5 pAb and incubated for 30 min at 4° C. under shaking. The sample was loaded onto a column containing Sepharose-coated magnetic beads (Milteny), washed with a stringent washing buffer (50 mM Tris, 500 mM NaCl, 1% NP-40, 0.5% Triton X-100). The column was washed twice with this buffer, twice with the same buffer except that the NaCl was 300 mM and, finally, 5 times with a hyposaline buffer (20 mM Tris pH 7.5). The sample was eluted from the column with 30 ml 5× sample buffer and analyzed by Western blotting using different mAb to potential partners.

B1: Bid (other, human, UniProt P55957 1-195, looked up)
chain: MDCEVNNGSSLRDECITNLLVFGFLQSCSDNSFRRELDALGHELPVLAPQWEGYDELQTDGNRSSHSRLGRIEADSESQEDIIRNIARHLAQVGDSMDRSIPPGLVNGLALQLRNTSRSEEDRNRDLATALEQLLQAYPRDMEKEKTMLVLALLLAKKVASHTPSLLRDVFHTTVNFINQNLRTYVRSLARNGMD
In the case of B1, the binding result was “no binding”.
